The record followed here is patent publication US20260070976A1 (Alector, published 2026).

Test [1] concerns the target T1, human PILRA G78 on HEK293F cells (human, UniProt Q9UKJ1 20-303).
T1 construct: also called hA; G78 OE
Put plainly: flow cytometry blocking assay; antibody on HEK293F cells overexpressing human PILRA G78, then 5 ug/mL NPDC1 Fc as the blocked ligand; cell-bound NPDC1 Fc read as MFI. The protocol:
A dose response curve of antibodies X0 (PA-29), X1, X2, X7, X11, X12, X13, X14, X16, X18, and X20 was assessed for modulating the binding of Neural Proliferation Differentiation and Control Protein 1 (NPDC1) Fc to 293 cells ectopically expressing human PILRA (HEK293F human PILRA G78 overexpressing cells). Conditioned media samples containing antibodies were incubated with human PILRA overexpressing cells for 30 minutes at 4° C., and then 5 μg/mL NPDC1 Fc was added to this mixture. After 30 minutes of incubation at 4° C., the cells were washed and cell-bound NPDC1 Fc was detected with anti-human IgG Alexa Fluor 647. The cells were analyzed by flow cytometry on FACS Canto II with the percentage of NPDC1 Fc binding in the presence of conditioned media relative to NPDC1 Fc binding alone was calculated. […] All tested antibodies decreased binding of NPDC1 to human PILRA.
(A flow cytometer gives signals particle by particle.)

For test [2], the target named is T2, cynomolgus PILRA on HEK293F cells (cynomolgus monkey, UniProt A0A7N9CRU1 20-292). Description: cA Kd of Table 9; method not stated (Example 8: HEK293F overexpressing cells, FACS).
Test [3] has as its target T3, human PILRB on HEK293F cells (human, UniProt Q9UKJ0 20-227).
T3 construct: also called hB
Put plainly: hB Kd of Table 9; method not stated (Example 8: HEK293F overexpressing cells, FACS).

The target in the next test is recombinant human PILRA (human, UniProt Q9UKJ1 20-197). Description: SPR, Carterra LSA, antibody amine-coupled, kinetic fit. A general note: Surface plasmon resonance follows binding to a sensor surface in real time, without labels.
Test [4] addresses T4, recombinant cynomolgus PILRA (SEQ ID NO:120) (cynomolgus monkey).
T4 construct: also called cyno PILRA
Described as above.

The target of test [5] is T1, human PILRA G78 on HEK293F cells. Description: FACS on HEK293F cells, binding on human PILRA (hA) over human PILRB (hB). As to the method:
(§1) Conditioned media samples containing the tested anti-PILRA antibodies were assessed for binding to HEK293F cells overexpressing human PILRA (hA), human PILRB (hB), and cynomolgus PILRA (cA) by FACS. The conditioned media containing the tested antibodies were incubated with the cells for 30 min at 4° C., washed twice, and then detected with goat anti-human IgG secondary antibody (Alexa Fluor 647) at 1:1000 dilution. The cells were analyzed by flow cytometry on FACS Canto II, and for all cell lines, the reported MFI values were calculated for each conditioned media. These antibodies were evaluated for nonspecific binding using a baculovirus particle (BVP) assay (Jain T., Sun T., Durand S., Hall A., Houston N. R., Nett J. H., Sharkey B., Bobrowicz B., Caffry L, Yu Y., et al. Biophysical properties of the clinical-stage antibody landscape. Proc. Natl. Acad. Sci. USA. 2017; 114:944-949. Doi: 10.1073/pnas.1616408114.). The BVP scores are listed in Table 9, and the higher the score the more nonspecific binding that occurred.

Test [6] addresses T2, cynomolgus PILRA on HEK293F cells. Put plainly: flow cytometry; HEK293F cells overexpressing cynomolgus PILRA, goat anti-human IgG Alexa Fluor 647.
Test [7] concerns the target T1, human PILRA G78 on HEK293F cells. Put plainly: flow cytometry; HEK293F cells overexpressing human PILRA, goat anti-human IgG Alexa Fluor 647. As to the method:
as §1

Test [8] concerns the target T5, cell surface PILRA on human monocytes (human, UniProt Q9UKJ1 20-303).
T5 construct: Native PILRA on CD14+ monocytes of healthy donors; also called human PILRA; hu mono
Description: flow cytometry; Alexa Fluor 647-conjugated antibody on human CD14+ monocytes, Fc receptors blocked, 30 min on ice. As to the method:
Anti-human PILRA antibodies X0 (PA-29) and its affinity matured variants were tested for their abilities to bind cell surface PILRA on human and cynomolgus monocytes. CD14+ monocytes were isolated from healthy human donors using a RosetteSep Human Monocyte Enrichment Cocktail kit (StemCell). Cynomolgus white blood cells were collected from cynomolgus whole blood. In both human and cynomolgus samples, the Fc receptor on the tested monocytes was blocked and the monocytes were treated with Alexa Fluor 647-conjugated PILRA antibodies for 30 minutes on ice. A dose response curve of antibodies X0 (PA-29), X1, X2, X7, X11, X12, X13, X14, X16, X18, and X20 was tested for binding to cell surface PILRA in human and cynomolgus monocytes, and antibodies bound to PILRA in a dose response manner. In another sample of human donor monocytes, a dose response curve of antibodies X0 (PA-29), X1, X2, X11, X13, X18, X29 (PA-43), and X34 (A6) was tested for binding to cell surface PILRA in human and cynomolgus monocytes, and antibodies bound to PILRA in a dose response manner.

T1 sequence (Q9UKJ1 20-303 R78G): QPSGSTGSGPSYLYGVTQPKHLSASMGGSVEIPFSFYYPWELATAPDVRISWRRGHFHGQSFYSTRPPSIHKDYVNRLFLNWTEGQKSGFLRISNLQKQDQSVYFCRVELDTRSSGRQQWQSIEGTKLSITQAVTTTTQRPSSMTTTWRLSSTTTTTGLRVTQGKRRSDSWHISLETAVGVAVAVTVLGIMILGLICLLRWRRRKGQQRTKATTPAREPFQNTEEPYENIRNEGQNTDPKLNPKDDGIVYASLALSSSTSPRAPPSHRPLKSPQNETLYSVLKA
T2 sequence (A0A7N9CRU1 entry or part of it): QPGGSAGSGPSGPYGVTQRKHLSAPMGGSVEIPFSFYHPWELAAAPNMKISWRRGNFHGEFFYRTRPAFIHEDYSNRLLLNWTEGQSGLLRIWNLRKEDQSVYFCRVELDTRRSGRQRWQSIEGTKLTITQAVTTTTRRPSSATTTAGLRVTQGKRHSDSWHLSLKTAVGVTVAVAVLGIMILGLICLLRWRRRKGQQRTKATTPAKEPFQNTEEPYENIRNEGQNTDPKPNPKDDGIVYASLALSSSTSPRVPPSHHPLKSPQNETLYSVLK
Chain of recombinant human PILRA (Q9UKJ1 20-197 limits assumed): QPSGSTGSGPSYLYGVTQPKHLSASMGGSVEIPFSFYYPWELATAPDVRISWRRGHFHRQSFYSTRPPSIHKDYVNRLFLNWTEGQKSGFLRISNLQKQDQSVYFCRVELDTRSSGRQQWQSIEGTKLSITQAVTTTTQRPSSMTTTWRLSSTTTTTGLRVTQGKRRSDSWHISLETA
T5 sequence (Q9UKJ1 20-303): as the sequence (Q9UKJ1 20-303 R78G) above, with G59R counted along it
T3 sequence (Q9UKJ0 20-227): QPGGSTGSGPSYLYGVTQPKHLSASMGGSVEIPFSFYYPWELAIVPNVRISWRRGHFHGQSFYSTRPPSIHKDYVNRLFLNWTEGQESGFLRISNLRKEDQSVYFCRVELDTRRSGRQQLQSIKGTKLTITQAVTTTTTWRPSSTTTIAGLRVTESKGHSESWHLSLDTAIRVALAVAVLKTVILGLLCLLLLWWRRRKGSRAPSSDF
T4 sequence (chain, as listed by the source limits assumed): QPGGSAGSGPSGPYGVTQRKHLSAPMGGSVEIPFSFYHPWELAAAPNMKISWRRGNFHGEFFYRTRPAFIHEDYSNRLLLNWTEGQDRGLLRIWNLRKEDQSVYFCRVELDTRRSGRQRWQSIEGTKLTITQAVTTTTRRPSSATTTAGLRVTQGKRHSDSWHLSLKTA

B1: X13 (antibody, human IgG4, V domains shown)
VH: QVQLVQSGAEVKKPGSSVKVSCKASGYNFLHYDVNWVRQAPGQGLEWMGGIIPIFGTANYAQKFQGRVTITADESTSTAYMELSSLRSEDTAVYYCATAVGAGWFDPWGQGTLVTVSS
VL: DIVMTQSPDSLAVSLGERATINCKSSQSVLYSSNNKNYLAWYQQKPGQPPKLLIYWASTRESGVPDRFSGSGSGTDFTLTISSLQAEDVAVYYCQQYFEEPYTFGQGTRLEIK
notes: conditioned media in the HEK293F assays
As usually defined, the Kd is a measure of binding affinity in units of concentration. What is called EC50 (read off the curve) is the concentration needed to bring the measured effect to its halfway point. Low readings indicate greater potency, high ones weaker potency. As to B1, the “IC50 (read off the curve)” value in test [1] is ~0.08 µg/mL. Besides, the Kd in test [2] was 0.4 nM; in test [3] it was 51.5 nM; with recombinant human PILRA, 1.1 nM; in [4], 0.3 nM. For the same molecule, the “hA/hB binding ratio on HEK293F” value in test [5] is 20.3. The figures for the “EC50 (read off the curve)” value in [6], in test [7] and in test [8] were ~0.5 µg/mL, ~0.3 µg/mL and ~0.2 µg/mL, respectively.
